Measured values reported in US20150030597A1 (US Dept. of Health and Human Services, published 2015).

Key:
[1] = target: T1, soluble mouse VEGFR2-hIgG.FC fusion protein (mouse; human, UniProt P35918 20-762); assay: flow cytometry, transduced mouse CD3+CD8+ T cells stained with soluble mVEGFR2-hIgG.FC and PE anti-human IgG-FC; mean ± SEM of 5 experiments
T1 construct: Bought from R&D Systems; also called soluble mouse VEGFR-2-human IgG-FC fusion protein; mVEGFR2-hIgG.FC; not shown: human IgG Fc
Description: (§1) Mouse T cells were retrovirally transduced with retroviral vectors DC101-CD828Z or DC101-CD828BBZ CAR as described in Example 5 or were transduced with the DC101-CD8 or SP6-CD828BBZ vectors described in Comparative Example 1, or with an empty MSGV vector (lacking any of the CAR sequences). Surface expression of the retrovirally encoded transgene products in transduced CD3⁺ primary mouse T cells was determined by flow cytometry using the soluble mouse VEGFR-2-human IgG-FC fusion protein and PE-conjugated anti-human IgG-FC.
(§2) On day 4 post-transduction, cells were costained with anti-mouse CD8 antibody and CAR-specific reagents and were FACS analysed to determine the expression of transgene products in CD8⁺and CD8″ T cell subsets. Detection of DC101 CAR on retrovirally transduced mouse T cells on day 4 after transduction was achieved by indirect immunofluorescence with soluble mouse (m) VEGFR2-hIgG.FC fusion protein (R&D Systems®, Minneapolis, […].), followed by staining with a phycoerythrin (PE)-labeled goat anti-human IgG-FC antibody (eBioscience™, San Diego, Calif.). Briefly, 5×10⁵ cells were incubated with 2 μg of bovine serum albumin (BSA; Sigma-Aldrich®) or species-specific soluble mVEGFR2-hIgG.FC protein at 4° C. for 45 min. Cells were then washed in FACS buffer (phosphate buffered saline containing 1% FBS) and stained with PE-conjugated anti human IgG-FC (αchIgG.FC). At this step, mouse T cells were co-stained with peridinin chlorophyll (PerCP)-labeled anti-mouse CD8 (BD Pharmingen, San Diego, Calif.) at appropriate concentrations recommended by the manufacturer at 4° C. for 20-30 min, then washed and resuspended in FACS buffer. Cells incubated with 2 μg bovine serum albumin (BSA) and subsequently stained with PE-conjugated anti human IgG-FC (αhIgG-FC) and PerCP labeled anti-mouse CD8 served as a control.

[2] = target: T1, soluble mouse VEGFR2-hIgG.FC fusion …; assay: flow cytometry, transduced mouse CD3+CD4+ T cells stained with soluble mVEGFR2-hIgG.FC and PE anti-human IgG-FC; mean ± SEM of 5 experiments
Description: as §1, §2

T1 sequence (P35918 20-762 limits assumed): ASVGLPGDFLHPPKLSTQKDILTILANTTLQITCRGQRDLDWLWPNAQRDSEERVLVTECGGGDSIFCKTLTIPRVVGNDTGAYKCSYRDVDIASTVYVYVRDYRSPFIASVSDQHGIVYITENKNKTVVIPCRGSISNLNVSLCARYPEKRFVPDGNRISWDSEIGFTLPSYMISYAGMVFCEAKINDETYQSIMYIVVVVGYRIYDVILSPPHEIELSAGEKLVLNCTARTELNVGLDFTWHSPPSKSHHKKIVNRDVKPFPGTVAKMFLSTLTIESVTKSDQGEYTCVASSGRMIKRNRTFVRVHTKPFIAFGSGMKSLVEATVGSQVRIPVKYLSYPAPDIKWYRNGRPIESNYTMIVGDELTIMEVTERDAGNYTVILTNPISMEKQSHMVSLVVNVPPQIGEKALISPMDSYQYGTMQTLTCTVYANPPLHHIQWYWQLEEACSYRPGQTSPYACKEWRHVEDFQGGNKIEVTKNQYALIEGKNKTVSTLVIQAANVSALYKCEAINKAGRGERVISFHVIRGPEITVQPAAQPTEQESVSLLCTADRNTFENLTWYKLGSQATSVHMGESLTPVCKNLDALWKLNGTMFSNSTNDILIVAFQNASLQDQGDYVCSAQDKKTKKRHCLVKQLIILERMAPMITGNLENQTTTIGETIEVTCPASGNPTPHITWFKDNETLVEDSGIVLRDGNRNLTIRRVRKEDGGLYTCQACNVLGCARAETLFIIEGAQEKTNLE

Binder	% Transduction (percent transgene positive cells) [1]	Mean Fluorescence Intensity (MFI) [1]	% Transduction (percent transgene positive cells) [2]	Mean Fluorescence Intensity (MFI) [2]
DC101-CD8 (other, also called MSGV-DC101-CD8) EVQLVETGGGLVQPGNSLKLSCATSGFIFSTTWMNWIRQTPGKRLEWLAQIEDKSNNYFISYSESVKGRFTISRDDSKSSVYLQMNNLKEEDTAIYYCSWKYRSNYYFDYWGQGVMVTVSSGSTSGSGKPGSGEGSDIVLTQSPALAVSLEQRATISCKTSQNVDYYGISYLHWYQQKPGQQPKLLIYEGSNLASGIPARFSGSGSGTDFTLTIDPVEADDIVTYYCQQSKDYPYTFGAGTKLELKTTTKPVLRTPSPVHPTGTSQPQRPEDCRPRGSVKGTGLDFACDIYIWAPLAGICVALLLSLIITLICYHRSR	80.8%	108	83.2%	114
DC101-CD828Z CAR (other, Chimeric antigen receptor on transduced primary mouse T cells: same as DC101-CD828BBZ but without the 4-1BB signalling domain; also called DC101-mCD828Z; MSGV-DC101-CD828Z) EVQLVETGGGLVQPGNSLKLSCATSGFIFSTTWMNWIRQTPGKRLEWLAQIEDKSNNYFISYSESVKGRFTISRDDSKSSVYLQMNNLKEEDTAIYYCSWKYRSNYYFDYWGQGVMVTVSSGSTSGSGKPGSGEGSDIVLTQSPALAVSLEQRATISCKTSQNVDYYGISYLHWYQQKPGQQPKLLIYEGSNLASGIPARFSGSGSGTDFTLTIDPVEADDIVTYYCQQSKDYPYTFGAGTKLELKAAATTTKPVLRTPSPVHPTGTSQPQRPEDCRPRGSVKGTGLDFACDIYIWAPLAGICVALLLSLIITLICYHRSRNSRRNRLLQVTTMNMTPRRPGLTRKPYQPYAPARDFAAYRPRAKFSRSAETAANLQDPNQLYNELNLGRREEYDVLEKKRARDPEMGGKQQRRRNPQEGVYNALQKDKMAEAYSEIGTKGERRRGKGHDGLYQGLSTATKDTYDALHMQTLAPR	86%	92	84%	95
DC101-CD828BBZ CAR (other, also called DC101-mCD828BBZ; MSGV-DC101-CD828BBZ) EVQLVETGGGLVQPGNSLKLSCATSGFIFSTTWMNWIRQTPGKRLEWLAQIEDKSNNYFISYSESVKGRFTISRDDSKSSVYLQMNNLKEEDTAIYYCSWKYRSNYYFDYWGQGVMVTVSSGSTSGSGKPGSGEGSDIVLTQSPALAVSLEQRATISCKTSQNVDYYGISYLHWYQQKPGQQPKLLIYEGSNLASGIPARFSGSGSGTDFTLTIDPVEADDIVTYYCQQSKDYPYTFGAGTKLELKAAATTTKPVLRTPSPVHPTGTSQPQRPEDCRPRGSVKGTGLDFACDIYIWAPLAGICVALLLSLIITLICYHRSRNSRRNRLLQVTTMNMTPRRPGLTRKPYQPYAPARDFAAYRPKWIRKKFPHIFKQPFKKTTGAAQEEDACSCRCPQEEEGGGGGYELRAKFSRSAETAANLQDPNQLYNELNLGRREEYDVLEKKRARDPEMGGKQQRRRNPQEGVYNALQKDKMAEAYSEIGTKGERRRGKGHDGLYQGLSTATKDTYDALHMQTLAPR	78.2%	75.8	79%	76.5
